Test results reported in paper PMC6456745.

What was measured:
[1] = biological target: AccS′ (soluble C-terminal autokinase module of the AccS sensor kinase), His6-tagged (Azoarcus sp. CIB); assay: AUC; sedimentation velocity, 20°C, 48,000 rpm, AccS′ 1 mg/ml, with 0.1 mM DTT and 250 µM ubiquinone Q0; dimer to monomers
[2] = biological target: AccS′ (soluble C-terminal autokinase module of the AccS sensor kinase), His6-tagged (Azoarcus sp. CIB); assay: AUC; sedimentation velocity, 20°C, 48,000 rpm, AccS′ 1 mg/ml, in the absence of DTT or with 0.1 mM DTT; dimer to monomers

percent of the protein as dimer (with DTT and Q0) [1]: 37% | stoichiometry N [1]: 2 | percent of the protein as dimer (in the absence of DTT) [2]: 62% | percent of the protein as dimer (with DTT) [2]: 88% | stoichiometry N [2]: 2
Substance: AccS′ (soluble C-terminal autokinase module of the AccS sensor kinase), His6-tagged (domain or fragment)
